Measurements reported in paper PMC10164584, “Structural basis for the tRNA-dependent activation of the terminal complex of selenocysteine synthesis in humans” (Nucleic Acids Research, 2023).

Key:
[1] = tested on: SepSecS S393A (human); test: MST; conditions: MST: 20 mM HEPES pH 8.0, 150 mM NaCl, 5% glycerol, 0.05% Tween-20, 0.4 mg/ml BSA, room temperature, 5 nM labeled SepSecS; van't Hoff series 24-34 C
[2] = tested on: SepSecS E37L (human); test: MST; conditions: MST: 20 mM HEPES pH 8.0, 150 mM NaCl, 5% glycerol, 0.05% Tween-20, 0.4 mg/ml BSA, room temperature, 5 nM labeled SepSecS; van't Hoff series 24-34 C
[3] = tested on: SepSecS R398A (human); test: MST; conditions: MST: 20 mM HEPES pH 8.0, 150 mM NaCl, 5% glycerol, 0.05% Tween-20, 0.4 mg/ml BSA, room temperature, 5 nM labeled SepSecS; van't Hoff series 24-34 C
[4] = tested on: SepSecS S27A (human); test: MST; conditions: MST: 20 mM HEPES pH 8.0, 150 mM NaCl, 5% glycerol, 0.05% Tween-20, 0.4 mg/ml BSA, room temperature, 5 nM labeled SepSecS; van't Hoff series 24-34 C
[5] = tested on: Q399A SepSecS (human); test: MST; conditions: MST: 20 mM HEPES pH 8.0, 150 mM NaCl, 5% glycerol, 0.05% Tween-20, 0.4 mg/ml BSA, room temperature, 5 nM labeled SepSecS; van't Hoff series 24-34 C
[6] = tested on: SepSecS K38M (human); test: MST; conditions: MST: 20 mM HEPES pH 8.0, 150 mM NaCl, 5% glycerol, 0.05% Tween-20, 0.4 mg/ml BSA, room temperature, 5 nM labeled SepSecS; van't Hoff series 24-34 C
[7] = tested on: SepSecS T397V (human); test: MST; conditions: MST: 20 mM HEPES pH 8.0, 150 mM NaCl, 5% glycerol, 0.05% Tween-20, 0.4 mg/ml BSA, room temperature, 5 nM labeled SepSecS; van't Hoff series 24-34 C
[8] = tested on: SepSecS R26A (human); test: MST; conditions: MST: 20 mM HEPES pH 8.0, 150 mM NaCl, 5% glycerol, 0.05% Tween-20, 0.4 mg/ml BSA, room temperature, 5 nM labeled SepSecS; van't Hoff series 24-34 C
[9] = tested on: SepSecS R33A (human); test: MST; conditions: MST: 20 mM HEPES pH 8.0, 150 mM NaCl, 5% glycerol, 0.05% Tween-20, 0.4 mg/ml BSA, room temperature, 5 nM labeled SepSecS; van't Hoff series 24-34 C
[10] = tested on: SepSecS H30A (human); test: MST; conditions: MST: 20 mM HEPES pH 8.0, 150 mM NaCl, 5% glycerol, 0.05% Tween-20, 0.4 mg/ml BSA, room temperature, 5 nM labeled SepSecS; van't Hoff series 24-34 C
[11] = tested on: SepSecS F396V (human); test: MST; conditions: MST: 20 mM HEPES pH 8.0, 150 mM NaCl, 5% glycerol, 0.05% Tween-20, 0.4 mg/ml BSA, room temperature, 5 nM labeled SepSecS; van't Hoff series 24-34 C
[12] = tested on: SepSecS WT (human); test: MST; conditions: MST: 20 mM HEPES pH 8.0, 150 mM NaCl, 5% glycerol, 0.05% Tween-20, 0.4 mg/ml BSA, room temperature, 5 nM labeled SepSecS; van't Hoff series 24-34 C
[13] = molecular target: T1, human SepSecS (Homo sapiens, UniProt Q9HD40, V491A); conditions: holo SepSecS without bound tRNA; P-loop site near active site
T1 sequence (Q9HD40 1-501 V491A): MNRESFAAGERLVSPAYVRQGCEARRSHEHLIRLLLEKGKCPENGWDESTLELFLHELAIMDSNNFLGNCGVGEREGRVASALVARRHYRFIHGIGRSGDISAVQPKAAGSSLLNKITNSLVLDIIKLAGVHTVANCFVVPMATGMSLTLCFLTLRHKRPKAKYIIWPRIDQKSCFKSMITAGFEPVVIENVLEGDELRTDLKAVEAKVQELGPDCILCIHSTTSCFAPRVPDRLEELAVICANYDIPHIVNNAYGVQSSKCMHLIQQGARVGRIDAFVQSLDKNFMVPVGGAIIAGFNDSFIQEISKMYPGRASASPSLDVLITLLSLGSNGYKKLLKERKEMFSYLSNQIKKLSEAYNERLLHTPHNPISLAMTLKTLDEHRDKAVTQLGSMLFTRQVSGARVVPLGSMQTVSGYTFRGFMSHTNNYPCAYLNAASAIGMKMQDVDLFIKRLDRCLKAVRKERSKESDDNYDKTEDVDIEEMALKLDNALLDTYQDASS

Compound	Kd [1] [nM]	Kd [2] [nM]	Kd [3] [nM]	Kd [4] [nM]	Kd [5] [nM]	Kd [6] [nM]	Kd [7] [nM]	Kd [8] [nM]	Kd [9] [nM]	Kd [10] [nM]	Kd [11] [nM]	Kd [12] [nM]	X-ray crystallography, 2.25 A [13]
tRNASec WT (unacylated)	197	166	2530	133	567	1670	62.8	516	28.9	166	44.1	134	–
O=P(O)(O)O [phosphate ion]	–	–	–	–	–	–	–	–	–	–	–	–	structure of holo SepSecS possessed a phosphate ion bound to the P-loop
